Measurements: publication PMC4754693 (Scientific Reports, 2016)

Molecular target: the molecule itself
Experiment: AUC

B1: SARS 3C-like proteinase (SARS-3CLpro), wild type (enzyme)
chain: SGFRKMAFPSGKVEGCMVQVTCGTTTLNGLWLDDTVYCPRHVICTAEDMLNPNYEDLLIRKSNHSFLVQAGNVQLRVIGHSMQNCLLRLKVDTSNPKTPKYKFVRIQPGQTFSVLACYNGSPSGVYQCAMRPNHTIKGSFLNGSCGSVGFNIDYDCVSFCYMHHMELPTGVHAGTDLEGKFYGPFVDRQTAQAAGTDTTITLNVLAWLYAAVINGDRWFLNRFTTTLNDFNLVAMKYNYEPLTQDHVDILGPLSAQTGIAVLDMCAALKELLQNGMNGRTILGSTILEDEFTPFDVVRQCSGVTFQ
In the case of B1, the “stoichiometry N” value is reported as 2.
